From patent US20230321261A1, “AXL-SPECIFIC ANTIBODY-DRUG CONJUGATES FOR CANCER TREATMENT” (GENMAB A/S, priority 2016, published 2023)
Where a chain is given by its changes, count along the chain named. Names and notes keep the numbering of the source.

B1: IgG1-AXL-148: AXL-specific human IgG1,κ antibody, VH SEQ ID NO:5, VL SEQ ID NO:6, Ig2 domain binding (antibody, listed as Homo sapiens, V domains shown)
VH: EVQLLESGGGLVQPGGSLRLSCAASGFTFSSYAMTWVRQAPGKGLEWVSAISISGGSTFYADSVKGRFTISRDNSKNTLYLQMNSLRAEDTAVYYCRGYSGYVYDAFDFWGQGTMVTVSS
VL: DIQMTQSPSSLSASVGDRVTITCRASQGISNWLAWYQQKPEKAPKSLIYAASSLQSGVPSRFSGSGSGTDFTLTISSLQPEDFATYYCQQYNSYPLTFGGGTKVEIK
B2: IgG1-AXL-148-vcMMAE (conjugate)
VH: B1 VH
VL: B1 VL
B3: IgG1-AXL-726: AXL-specific human IgG1,κ antibody, VH SEQ ID NO:31, VL SEQ ID NO:33, FN2 domain binding (antibody, listed as Homo sapiens, V domains shown)
VH: QVQLQQWGAGLLKPSETLSLTCAIDGGSFSGYYWSWIRQPPGKGLEWIGEISHSGRTNYNPSLKSRVTISIDTSKNQFSLKLSSVAAADTAVYYCARFITMIRGAIITHFDYWGQGALVTVSS
VL: B1 VL with N31S, N92H, L96Y, G100Q, V104L
B4: IgG1-AXL-726-M101L: point mutant of IgG1-AXL-726, VH SEQ ID NO:32, VL SEQ ID NO:33 (antibody, listed as Homo sapiens, V domains shown)
VH: B3 VH with M101L
VL: B1 VL with N31S, N92H, L96Y, G100Q, V104L

Legend:
A431 cells [1] = experiment: Antibody-dependent cell-mediated cytotoxicity (51Cr release); format: cell-based, human; details: concentrations up to 10 µg/mL; PBMC effector to target ratio 100:1
Procedure: The ability of anti-AXL antibodies to induce ADCC of A431 epidermoid carcinoma cells was determined as explained below. As effector cells, peripheral blood mononuclear cells from healthy volunteers (UMC Utrecht, The Netherlands) were used.
A431 cells were collected (5×10^6 cells) in culture medium (RPMI 1640 culture medium supplemented with 10% fetal calf serum (FSC)), to which 100 µCi ^51Cr (Chromium-51; Amersham Biosciences Europe GmbH, Roosendaal, The Netherlands) had been added, and the mixture was incubated in a 37° C. water bath for 1 hour (hr) while shaking. After washing of the cells (twice in PBS, 1200 rpm, 5 min), the cells were resuspended in RPMI1640/10% FSC and counted by trypan blue exclusion. […]
Peripheral blood mononuclear cells (healthy volunteers, UMC Utrecht, Utrecht, The Netherlands) were isolated from 45 mL of freshly drawn heparin blood by Ficoll (Bio Whittaker; lymphocyte separation medium, cat 17-829E) according to the manufacturer’s instructions. After resuspension of cells in RPMI1640/10% FSC, cells were counted by trypan blue exclusion and diluted to a density of 1×10^7 cells/mL.
50 µl of ^51Cr-labeled targets cells were pipetted into 96-well plates, and 50 µl of antibody were added, diluted in RPMI1640/10% FSC (3-fold dilutions at final concentrations range 0.01-10 µg/mL). […] The percentage specific lysis was calculated as follows: […]

[2] = molecular target: T1, human AXL with a cynomolgus monkey extracellular domain (ECD) (Homo sapiens, UniProt P30530, P441T/S191N/S285L/T105A/T112A/T125N/T443A); experiment: Flow cytometry binding to transfected HEK293T cells; details: at least 3 experiments
T1 construct: aa 1-447); human AXL transmembrane and intracellular part (the remainder of human AXL after the ECD; expressed in transfected cells; host or cells: HEK293T

[3] = molecular target: T2, human AXL transiently expressed by HEK-293F cells (Homo sapiens, UniProt P30530); experiment: Homogeneous antigen specific screening assay (FMAT); format: binding
T2 construct: TH1021-AXL (HEK-293F cells transiently expressing full length human AXL; produced as described above); expressed in transfected cells; host or cells: HEK-293F

full length human AXL = molecular target: T3, full length human AXL (Homo sapiens, UniProt P30530); experiment: Flow cytometry binding to transfected HEK293T cells; details: at least 3 experiments
T3 construct: expression constructs for full length human AXL; expressed in transfected cells; host or cells: HEK293T
Procedure: HEK293T cells were transiently transfected with expression constructs for full length human AXL, human AXL with a cynomolgus monkey extracellular domain (ECD) or human AXL with a mouse ECD (see Example 1). Binding of HuMab-AXL antibodies to these cells was evaluated by flow cytometry. Transfected HEK293 cells were incubated with serial dilutions of AXL-antibodies (final concentration range 0.0024-10 µg/mL) for 30 minutes at 4° C. […] Next, cells were washed twice in PBS/0.1% BSA/0.02% azide, resuspended in 120 µL PBS/0.1% BSA/0.02% azide and analyzed on a FACS Cantoll (BD Biosciences).
(§1) Binding curves were analyzed using non-linear regression (sigmoidal dose-response with variable slope) using GraphPad Prism V5.04 software (GraphPad Software, San Diego, CA, USA).

PAXF1657 tumors = experiment: PAXF1657 pancreas cancer PDX model; format: in vivo, NMRI nu/nu mice; details: for anti-tumor activity in the PAXF1657 model (FIG. 10B, 10C): mouse, in vivo
[4] = molecular target: T4, Gas6 binding to AXL on A431 cells (Homo sapiens, UniProt P30530); experiment: Gas6 binding to A431 cells pre-incubated with AXL antibodies; details: pre-incubation with 10 µg/mL antibody; control antibody b12
T4 construct: endogenous in cells; host or cells: A431
Procedure: Alternatively, A431 cells were pre-incubated with 10 µg/mL AXL antibodies (15 minutes, 4° C.) to assess if the AXL ligand Gas6 could still bind in presence of AXL antibodies. […] After washing three times in PBS/0.1% BSA/0.02% azide, cells were incubated with mouse anti-Gas6 IgG2a (R&D Systems; cat no. MAB885) at 4° C. for 30 min. After washing three times in PBS/0.1% BSA/0.02% azide, cells were incubated with FITC-labelled goat anti-mouse IgG (Dako, Heverlee, Belgium; cat no. F049702) at 4° C. for 30 min in the dark. Next, cells were washed twice in PBS/0.1% BSA/0.02% azide, resuspended in 120 µL PBS/0.1% BSA/0.02% azide and analyzed on a FACS Cantoll (BD Biosciences).
as §1
Therefore, binding of Gas6 to A431 cells that had been pre-incubated with 10 µg/mL AXL antibodies was tested as described in Example 2.

[5] = molecular target: T5, AXLECDHis (extracellular domain of human AXL) (Homo sapiens, UniProt P30530); experiment: Binding affinity by Bio-Layer Interferometry (ForteBio OctetRED384); details: 1:1 model, 30° C.
T5 construct: the extracellular domain (ECD) of human AXL (aa 1-447) with a C-terminal His tag (AXLECDHis); His tag (C); made in house; host or cells: HEK-293F

[6] = molecular target: T6, human-mouse chimeric AXL mutants (Homo sapiens, UniProt P30530, A151P/A183V/D170T/D266N/G187S/H193Q/P184T/P188S/R148K/R190H/T149A/T182P/V194T); experiment: AXL domain specificity using human-mouse AXL chimeric molecules (flow cytometry); format: binding; details: 1 µg/mL antibody
T6 construct: constructs for expression of various full-length AXL variants were generated; expressed in transfected cells; host or cells: HEK293F

AXL on A431 cells = molecular target: T7, AXL on A431 cells (Homo sapiens, UniProt P30530); experiment: Antibody binding to A431 cells with or without Gas6 pre-incubation; details: for Antibody binding to A431 cells: EC50 in presence of Gas6 (µg/mL) mean (s.d.) / Antibody binding to A431 cells: Maximal binding in presence of Gas6 (% of binding in absence of Gas6) mean (s.d.): pre-incubation with 10 µg/mL Gas6; for Antibody binding to A431 cells: EC50 w/o Gas6 (µg/mL) mean (s.d.): without Gas6 pre-incubation
T7 construct: AXL-positive A431 cells were incubated; endogenous in cells; host or cells: A431

MDA-MB-231 cells = experiment: In vitro cytotoxicity (CellTiter-Glo, 5 days); format: cell-based, human; details: MMAE-conjugated antibodies
[7] = system: LCLC-103H xenograft tumors; experiment: LCLC-103H xenograft model; format: in vivo, SCID mice
Procedure: 5 × 10^6 LCLC-103H (large cell lung carcinoma) tumor cells (obtained from Leibniz-Institut DSMZ-Deutsche Sammlung von Mikroorganismen und Zellkulturen GmbH (DSMZ)) in 200 µL PBS were injected subcutaneously in the right flank of female SCID mice. Starting 14-21 days after tumor cell inoculation, when the average tumor size was >100-200 mm^3 and distinct tumor growth was observed, a single injection with 1 mg/kg (20 µg/mouse) IgG1-AXL-vcMMAE antibodies (as described in Supplementary Example 1) or control (unconjugated IgG1-b12) was given intraperitoneally (100 µL/mouse). Tumor volume was determined at least two times per week. Tumor volumes (mm^3) were calculated from caliper (PLEXX) measurements as: 0.52 × (length) × (width)^2.
(§2) Tumor induction was performed by subcutaneous injection of 5 × 10^6 A431 or LCLC-103H tumor cells (both obtained from Leibniz-Institut - Deutsche Sammlung von Mikroorganismen und Zellkulturen GmbH (DSMZ)) in 200 µL PBS in the right flank of female SCID mice. Treatment was started 14-21 days after tumor cell inoculation, when the average tumor size was >100-200 mm^3 and distinct tumor growth was observed. Mice received a single injection or a total of 4 biweekly intraperitoneal injections with IgG1-AXL-vcMMAE ADCs or control antibody (unconjugated IgG1-b12), as indicated. Tumor volume was determined at least two times per week. Tumor volumes (mm^3) were calculated from caliper (PLEXX) measurements as: 0.52 × (length) × (width)^2.

A431 cells [8] = details: MMAE-conjugated antibodies, 5 days
LCLC-103H cells = experiment: In vitro cytotoxicity (CellTiter-Glo, 5 days); format: cell-based, human; details: MMAE-conjugated antibodies
A431 tumors = experiment: A431 xenograft model (high Gas6); format: in vivo, SCID mice; details: 3 mg/kg
Procedure: as §2

[9] = molecular target: T8, human-mouse chimeric AXL mutants (Homo sapiens, UniProt P30530, A349V/A358V/A407T/A411S/A425P/A431G/C405S/D266N/F350L/G397R/H352R/I340V/K439S/P444R/Q372R/Q387R/Q394R/Q436H/R386T/S398P/S400A/S442P/T343M/T443P/V434L); experiment: AXL domain specificity using human-mouse AXL chimeric molecules (flow cytometry); format: binding; details: 1 µg/mL antibody
T8 construct: constructs for expression of various full-length AXL variants were generated; expressed in transfected cells; host or cells: HEK293F

| Molecule | ADCC in A431 cells (percentage specific lysis) (A431 cells [1]) | Binding EC50 (µg/mL) cynomolgus AXL Average (s.d.) [2] | Maximal binding (Arbitrary units) [3] [Arbitrary units] | Binding EC50 (µg/mL) human AXL Average (s.d.) (full length human AXL) | anti-tumor activity in the PAXF1657 model (FIG. 10B, 10C) (PAXF1657 tumors) | Gas6 binding to A431 cells: Maximal binding in presence of AXL antibodies (% of binding in presence of control antibody) mean (s.d.) [4] | Binding affinity (OCTET) Kdis [5] [s⁻¹] | Binding affinity (OCTET) Kon [5] [M⁻¹ s⁻¹] | Antibody binding to A431 cells: EC50 in presence of Gas6 (µg/mL) mean (s.d.) (AXL on A431 cells) | Antibody binding to A431 cells: Maximal binding in presence of Gas6 (% of binding in absence of Gas6) mean (s.d.) (AXL on A431 cells) | Antibody binding to A431 cells: EC50 w/o Gas6 (µg/mL) mean (s.d.) (AXL on A431 cells) | also measured |
| --- | --- | --- | --- | --- | --- | --- | --- | --- | --- | --- | --- | --- |
| B1 | did not induce significant ADCC | 0.152 (0.080) µg/mL | 3499 | 0.094 (0.059) µg/mL | did not result in anti-tumor activity | 106 (7) % | 0.0044 | 230000 | 0.20 (0.30) µg/mL | 93 (5) % | 0.11 (0.13) µg/mL | binding to hsAXL-mmIg2 [6]: strongly reduced binding |
| B2 |  |  |  |  | dose-dependent antitumor activity |  |  |  |  |  |  | growth of PAXF1657 tumors compared to the control group (PAXF1657 tumors; 2 mg/kg i.v., day 0): significantly reduced the growth; growth of PAXF1657 tumors (PAXF1657 tumors; 4 mg/kg i.v., day 0): induced tumor regression; Cytotoxicity EC50 (µg/mL) MDA-MB231 (n=2) Mean (MDA-MB-231 cells): 0.012 µg/mL; anti-tumor activity in the LCLC-103H xenograft model ([7]; 3 mg/kg (Example 13, FIG. 14A)): tumor regression; anti-tumor activity in established SC LCLC-103H tumors ([7]; single injection 1 mg/kg intraperitoneally (Example 9)): tumor regression; Cytotoxicity EC50 (µg/mL) A431 (n=3) Mean (A431 cells [8]): 0.070 µg/mL; Cytotoxicity in LCLC-103H cells EC50 (LCLC-103H cells): 0.012 mg/L; anti-tumor activity in the A431 xenograft model (A431 tumors): growth inhibition |
| B3 |  | 0.349 (0.160) µg/mL | 3154 | 0.288 (0.206) µg/mL |  | 98 (10) % | 0.00013 | 240000 | 0.55 (0.69) µg/mL | 97 (10) % | 0.32 (0.35) µg/mL | binding to hsAXL-mmFN2 [9]: lost |
| B4 | did not induce significant ADCC | 0.250 (0.066) µg/mL |  | 0.184 (0.117) µg/mL |  |  | 6.9e-05 |  |  |  |  |  |
